In patent US11390894B2, “Biological processes for the production of aryl sulfates” (CysBio ApS, priority 2014, dated 2022):

B1: RsTAL: tyrosine ammonia-lyase from Rhodobacter sphaeroides (protein)
chain: MLAMSPPKPAVELDRHIDLDEAHSVASGGARIVLAPPARDRCRASEARLGAVIREARHVYGLTTGFGPLANRLVSGENVRTLQANLVHHLASGVGPVLDWTTARAMVLARLVAIAQGASGASEGTIARLIDLLNSELAPAVPMRGTVGASGDLTPLAHMVLCLQGRGDFLDRDGTRLDGAEGLRRGRLQPLDLSHRDALALVNGTSAMTGIALVNAHACRHLGNWAVALTALLAECLGGRTEAWAAALSDLRPHPGQKDAAARLRARVDGSARVVRHVIAERRLGASDIGTEPEAGQDAYSLRCAPQVLGAGFDTLAWHDRVLTIELNAVTDNPVFPPDGSVPALHGGNFMGQHVALTSDALATAVTVLAGLAERQIARLTDERLNRGLPPFLHRGPAGLNSGFMGAQVTATALLAEMRATGPASIHSISTNAANQDVVSLGTIAARLCREKIDRWAEILAILALCLAQAAELRCGSGLDGVSPAGKKLVQALREQFPPLETDRPLGQEIAALATHLLQQSPV
modifications: Rhodobacter sphaeroides
B2: SULT1E1 Gallus gallus domesticus: aryl sulfotransferase SULT1E1 Gallus gallus domesticus (SEQ ID NO: 6) (protein, listed as Gallus gallus)
chain: MGNDEVIRQDLGCLYDIPLYKCFVAGWPQVEAFQARPDDLLIATYPKSGTTWLSEILDAIYHDGDLEKCRRDAIYNRVPFLEMKAPGILSGVEQLEKIPSPRLVKTHLPVHLLPASFQEKDCKVIYMARNAKDVVISYYYFYQMAKIHPDPGTLSEFLQAFMDGKVAYGSWYKHVKGWWEKRHEKRLLYLFYEDMKKDPRREIQKILQFLGKEVAEETVARILHHTSFQEMKKNPATNYETMPTELMDHSLSPFMRKGISGDWANHFTVAQNERFDQHYQQQMAGSDLCFQMEA
B3: SULT1A1 Homo sapiens: aryl sulfotransferase SULT1A1 Homo sapiens (SEQ ID NO: 2) (protein, listed as Homo sapiens)
chain: MELIQDTSRPPLEYVKGVPLIKYFAEALGPLQSFQARPDDLLISTYPKSGTTWVSQILDMIYQGGDLEKCHRAPIFMRVPFLEFKAPGIPSGMETLKDTPAPRLLKTHLPLALLPQTLLDQKVKVVYVARNAKDVAVSYYHFYHMAKVHPEPGTWDSFLEKFMVGEVSYGSWYQHVQEWWELSRTHPVLYLFYEDMKENPKREIQKILEFVGRSLPEETVDFMVQHTSFKEMKKNPMTNYTTVPQEFMDHSISPFMRKGMAGDWKTTFTVAQNERFDADYAEKMAGCSLSFRSEL
B4: SULT1A1 Canis lupus familiaris: aryl sulfotransferase SULT1A1 Canis lupus familiaris (SEQ ID NO: 5) (protein, listed as Canis lupus)
chain: MEDIPDTSRPPLKYVKGIPLIKYFAEALESLQDFQAQPDDLLISTYPKSGTTWVSEILDMIYQDGDVEKCRRAPVFIRVPFLEFKAPGIPTGLEVLKDTPAPRLIKTHLPLALLPQTLLDQKVKVVYVARNAKDVAVSYYHFYRMAKVHPDPDTWDSFLEKFMAGEVSYGSWYQHVQEWWELSHTHPVLYLFYEDMKENPKREIQKILKFVGRSLPEETVDLIVQHTSFKEMKNNSMANYTTLSPDIMDHSISAFMRKGISGDWKTTFTVAQNERFDADYAKKMEGCGLSFRTQL
B5: RcTAL: tyrosine ammonia-lyase from Rhodobacter capsulatus (protein, listed as Rhodobacter capsulatus)
chain: MLDATIGRKRMTLQSQTAKDCLALDGALTLVQCEAIATHRSRISVTPALRERCARAHARLEHAIAEQRHIYGITTGFGPLANRLIGADQGAELQQNLIYHLATGVGPKLSWAEARALMLARLNSILQGASGASPETIDRIVAVLNAGFAPEVPAQGTVGASGDLTPLAHMVLALQGRGRMIDPSGRVQEAGAVMDRLCGGPLTLAARDGLALVNGTSAMTAIAALTGVEAARAIDAALRHSAVLMEVLSGHAEAWHPAFAELRPHPGQLRATERLAQALDGAGRVCRTLTAARRLTAADLRPEDHPAQDAYSLRVVPQLVGAVWDTLDWHDRVVTCELNSVTDNPIFPEGCAVPALHGGNFMGVHVALASDALNAALVTLAGLVERQIARLTDEKLNKGLPAFLHGGQAGLQSGFMGAQVTATALLAEMRANATPVSVQSLSTNGANQDVVSMGTIAARRARAQLLPLSQIQAILALALAQAMDLLDDPEGQAGWSLTARDLRDRIRAVSPGLRADRPLAGDIEAVAQGLRHPSAADPPA

How the values were obtained:
Format in all cases: cell-based, Escherichia coli
tyrosine = test: In vivo supply of p-coumaric acid by tyrosine ammonia-lyases co-expressed with SULT1A1 rat in E. coli; details: M9 0.2% glucose, 2 mM tyrosine, 1 mM IPTG, overnight 37° C., supernatant
Description: (§1) The concentration of p-courmaric acid (pHCA) and zosteric acid in the supernatant was quantified by high performance (HPLC) and compared to chemical standards. HPLC was done on a Thermo setup using a HS-F5 column and mobile phases: 5 mM ammonium formate pH 4.0 (A) and acetonitrile (B) at 1.5 mL min-1, using a gradient elution starting at 5% B. From 0.5 min after injection to 7 min, the fraction of B increased linearly from 5% to 60%, and between 9.5 min and 9.6 the fraction of B decreased back to 5%, and remaining there until 12 min. pHCA and zosteric acid were quantified by measuring absorbance at 277 nm.
The genes encoding the tyrosine ammonia-lyases RcTAL (from Rhodobacter capsulatus; SEQ ID NO: 48), RsTAL (from Rhodobacter sphaeroides; SEQ ID NO: 17) and FjTAL (from Flavobacterium johnsoniae; SEQ ID NO: 14) were cloned into expression vectors as follows. Genes (SEQ ID NO: 49, 50, and 51, respectively) were optimized for E. coli and synthesized by GeneArt, amplified by PCR using the oligonucleotides shown in the table below, and cloned into pCDFDuet-1 (Novagen): The plasmid was digested with NdeI and BgIII and gel purified. The genes were inserted by isothermal assembly using Gibson Assembly Master Mix (New England Biolabs), and transformed into chemically competent DH5a (laboratory strain) or NEB5α (New England Biolabs), selecting for resistance to 50 μg mL^−1 spectinomycin in LB medium. Resulting plasmids pCBJ215 (RsTAL), pCBJ228 (FjTAL) and pCBJ297 (RcTAL) (FIGS. 6 to 8, respectively) were co-transformed by electroporation into the E. coli expression strain BL21(DE3) (Invitrogen/Life Technologies) together with a pETDuet-1-based plasmid expressing SULT1A1 from rat (Example 1). Transformation cultures were plated on LB containing 50 μg mL^−1 spectinomycin and 100 μg mL^−1 ampicillin. A control strain carrying pCDFDuet-1 was also made.
Strains harboring recombinant plasmids were pre-cultured in 2×YT liquid medium with 100 μg mL^−1 ampicillin and 50 μg mL^−1 spectinomycin and incubated at 37° C. and 250 rpm overnight. The following day, each pre-culture was transferred into 5 ml of M9 minimal medium with 0.2% glucose, 2 mM tyrosine and 1 mM IPTG for induction of expression. Cultures were placed in an incubator at 37° C. with shaking at 250 rpm overnight. The supernatants were then collected by centrifugation twice and applied to HPLC analysis as described in example 1, and the titers of p-coumaric acid (pHCA) and zosteric acid (ZA) were quantified using chemical standards and are presented in the table below.

pHCA [1] = test: Percent conversion of substrate by E. coli cells expressing sulfotransferases; details: 100 μM pHCA, M9 medium, overnight 37° C.
Description: as §1
(§2) Different sulfotransferases were examined for their substrate specificities against three substrates. We tested the sulfotransferases mentioned in example 1, as well as additional ones. The genes encoding these were cloned as described in example 1 using the primers shown in the table below from cDNA libraries of the respective organisms, except for the SULT1A1 from rat (Rattus norvegicus) codon-optimized for E. coli (described above). The resulting vectors were transformed into BL21(DE3)pLysS.
(§3) The resulting strains were grown in M9 medium containing either 100 μM pHCA, 95 μM resveratrol or 87 M kaempferol. The cultures were grown overnight at 37° C., 300 rpm. The following day the supernatants were isolated and examined by HPLC as described in example 1.

resveratrol = test: as above; details: 95 μM resveratrol, M9 medium, overnight 37° C.
Description: as §1, §2, §3

kaempferol = test: as above; details: 87 μM kaempferol, M9 medium, overnight 37° C.
Description: as §1, §2, §3

pHCA [2] = test: Production of zosteric acid in E. coli from pHCA through heterologous expression of sulfotransferases; details: culture media; M9 glucose, 0.1 mM IPTG, 0.1 mM pHCA, four days of growth
Excerpt: A range of aryl sulfotransferases including SULT1A1 Rattus norvegicus (SEQ ID NO: 1), SULT1A1 Homo sapiens (SEQ ID NO: 2), SULT1A1 Equus caballus (SEQ ID NO: 3), SULT1A1 Sus scrofa domesticus (SEQ ID NO: 4), SULT1A1 Canis lupus familiaris (SEQ ID NO: 5) and SULT1E1 Gallus gallus domesticus (SEQ ID NO: 6) were expressed in Escherichia coli. […]. The nucleotide sequence of the gene encoding SEQ ID NO: 2 was codon optimized for expression in Escherichia coli (GeneArt, Life Technologies) and amplified by PCR using the primers in Table 1. The pETDuet-1 plasmid was digested with restriction endonucleases Ncol and Sal. The PCR products were then individually cloned into the plasmid pETDuet-1 using the Gibson reaction (New England Biolabs). The resulting plasmids were transformed into BL21(DE3)pLysS (Life Technologies).
(§4) The strains were grown in M9 minimal media containing glucose as a carbon source, and 0.1 mM IPTG for induction of gene expression as well as 0.1 mM p-coumaric acid (pHCA). After four days of growth, samples were withdrawn by filtration and analyzed by HPLC.
as §1
Zosteric acid was formed with an aryl sulfotransferase heterologously expressed in a microorganism exemplified by E. coli supplied with the substrate.

pHCA [3] = test: Zosteric acid production in E. coli expressing an aryl sulfotransferase in combination with cysDNC and cysQ; details: induction 0.1 mM IPTG; grown as in Example 1 (0.1 mM pHCA)
Description: as §4, §1
The plasmid pRSFDuet-1 (Life Technologies) was digested by the restriction endonucleases NdeI and BgIII. The gene cluster was inserted into the digested plasmid using the Gibson reaction (New England Biolabs). […] For the combined expression of cysDNC and cysQ in an artificial operon, cysDNCQ, the two parts were amplified by PCR from E. coli MG1655 chromosomal DNA using the primers shown in Table 3. Again the parts were inserted into the digested plasmid. […] The plasmid expressing SULT1A1 Homo sapiens (SEQ ID NO: 2) from example 1 was co-transformed into E. coli BL21(DE3)pLysS cells (Life Technologies) with either the plasmid expressing cysDNC or cysDNCQ.
Cells were grown as in Example 1 and the supernatants were analyzed for product formation as in example 1. The strain expressing SULT1A1 in combination with cysDNCQ was also grown without the addition of IPTIG for induction.

Row | Molecule | μM ZA (tyrosine) | μM pHCA (tyrosine) | percent conversion of pHCA (pHCA [1]) | percent conversion of resveratrol (resveratrol) | percent conversion of kaempferol (kaempferol) | Zosteric acid formed (pHCA [2]) | pHCA remaining (pHCA [2]) | Zosteric acid formed (pHCA [3]) | pHCA remaining (pHCA [3])
1 | B1 | <1 µM | 78 μM | – | – | – | – | – | – | –
2 | B2 | – | – | 17% | 100% | 47% | 0.01 mM | 0.08 mM | – | –
3 | B3 | – | – | 39% | 36% | 97% | 0.02 mM | 0.08 mM | 0.02 mM | 0.08 mM
4 | B4 | – | – | 34% | 61% | 60% | 0.01 mM | 0.10 mM | – | –
5 | B5 | <1 µM | 20 μM | – | – | – | – | – | – | –
